Target: HgdA (All5345), putative nucleoside-diphosphate-sugar epimerase / UDP-galactose 4-epimerase of Anabaena sp. PCC 7120 (Anabaena sp. PCC 7120)
Assay: SEC; Superdex 75 10/300 on an ÄKTA system, Tris buffer (20 mmol/L Tris, 200 mmol/L NaCl, pH 7.5); masses calibrated with standard proteins (Gel Filtration LMW Calibration Kit)

stoichiometry N: 2
Substance: HgdA (All5345), putative nucleoside-diphosphate-sugar epimerase / UDP-galactose 4-epimerase of Anabaena sp. PCC 7120 (enzyme)

Source: paper PMC6692557
